These results are taken from paper PMC5089669, “Biocatalytic Properties and Structural Analysis of Eugenol Oxidase from Rhodococcus jostii RHA1: A Versatile Oxidative Biocatalyst” (Chembiochem, 2016).

This series deals with the molecule itself. Briefly: crystal structure; sitting-drop vapour diffusion at 20 °C; EUGO 15 mg/mL in 10 mM Tris-HCl pH 7.5 with 24 % PEG6000, 0.1 M Tris-HCl pH 8.0; crystals soaked with isoeugenol; two subunits in the asymmetric unit.

B1: Eugenol oxidase (EUGO) from Rhodococcus jostii RHA1 (enzyme, UniProt Q0SBK1 1-526, looked up)
chain: MTRTLPPGVSDERFDAALQRFRDVVGDKWVLSTADELEAFRDPYPVGAAEANLPSAVVSPESTEQVQDIVRIANEYGIPLSPVSTGKNNGYGGAAPRLSGSVIVKTGERMNRILEVNEKYGYALLEPGVTYFDLYEYLQSHDSGLMLDCPDLGWGSVVGNTLDRGVGYTPYGDHFMWQTGLEVVLPQGEVMRTGMGALPGSDAWQLFPYGFGPFPDGMFTQSNLGIVTKMGIALMQRPPASQSFLITFDKEEDLEQIVDIMLPLRINMAPLQNVPVLRNIFMDAAAVSKRTEWFDGDGPMPAEAIERMKKDLDLGFWNFYGTLYGPPPLIEMYYGMIKEAFGKIPGARFFTHEERDDRGGHVLQDRHKINNGIPSLDELQLLDWVPNGGHIGFSPVSAPDGREAMKQFEMVRNRANEYNKDYAAQFIIGLREMHHVCLFIYDTAIPEAREEILQMTKVLVREAAEAGYGEYRTHNALMDDVMATFNWGDGALLKFHEKIKDALDPNGIIAPGKSGIWSQRFRGQNL
modifications: FAD covalently bound: bond between His390 and the C8M atom of the flavin ring
notes: eugenol oxidase (EUGO), flavoprotein oxidase of the VAO family, Rhodococcus jostii RHA1; source: E. coli culture
Broadly, the stoichiometry N is the number of molecules, sites or subunits per partner or assembly. Regarding B1, the “stoichiometry N” value is 2.
